Patent US8399204B2, “Method for screening of substance which alter GPR120-mediated cell-stimulating activities” (Eisai R&D Management Co., Ltd., priority 2005, dated 2013)

T1: human GPR120 (Homo sapiens, UniProt Q5NUL3)
T1 construct: open reading frame which starts with ATG of the nucleotide number 1-3 and ends with TAA of the nucleotide number 1084-1086; expressed in transfected cells; host or cells: SE302 cells (HEK293 clone carrying a CRE-PLAP reporter), transduced with retrovirus from pBabeCL(GPR120)IH and selected with hygromycin
T1 sequence (Q5NUL3 1-361): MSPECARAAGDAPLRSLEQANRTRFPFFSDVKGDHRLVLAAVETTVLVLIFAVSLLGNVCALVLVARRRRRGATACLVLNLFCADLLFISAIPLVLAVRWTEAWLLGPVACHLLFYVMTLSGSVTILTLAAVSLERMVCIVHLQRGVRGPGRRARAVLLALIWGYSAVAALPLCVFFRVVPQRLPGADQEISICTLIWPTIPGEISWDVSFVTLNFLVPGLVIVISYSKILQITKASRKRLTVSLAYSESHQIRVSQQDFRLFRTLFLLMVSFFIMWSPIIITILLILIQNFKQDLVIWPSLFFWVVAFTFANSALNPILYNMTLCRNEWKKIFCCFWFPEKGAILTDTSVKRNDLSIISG

T2: mouse GPR120 (Mus musculus, UniProt Q7TMA4)
T2 construct: expressed in transfected cells; host or cells: SE302 cells (HEK293 clone carrying a CRE-PLAP reporter), transduced with retrovirus from pBabeCL(mGPR120)IH and selected with hygromycin
T2 sequence (Q7TMA4 1-361): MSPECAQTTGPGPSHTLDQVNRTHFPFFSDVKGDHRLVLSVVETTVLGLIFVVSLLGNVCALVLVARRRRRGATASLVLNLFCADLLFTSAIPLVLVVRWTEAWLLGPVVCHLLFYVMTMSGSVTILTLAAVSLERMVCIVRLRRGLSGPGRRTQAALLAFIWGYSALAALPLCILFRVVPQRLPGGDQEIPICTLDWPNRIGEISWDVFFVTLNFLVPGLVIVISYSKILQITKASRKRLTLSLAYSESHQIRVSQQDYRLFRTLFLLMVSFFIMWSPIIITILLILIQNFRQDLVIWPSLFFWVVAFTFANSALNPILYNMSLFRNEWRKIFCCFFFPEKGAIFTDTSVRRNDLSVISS


Experiments:
human GPR120 = target: T1, human GPR120; assay: PLAP reporter transcription activity in GPR120-SE302 cells (CRE-PLAP reporter); format: cell-based; settings: HEK293-derived SE302 cells expressing human GPR120; forskolin 1.0 μM plus sample, 24 hours; chemiluminescence of supernatant; compared to control cells (GFP-SE302)
Description: (§1) Using a retrovirus vector plasmid pBabeCLcre4vPdNN capable of inducing a reporter PLAP gene by a cyclic AMP responsive element sequence, a retrovirus vector was prepared according to the method described in Example 4. The retrovirus vector prepared was introduced into HEK293 cells and cells were cloned by a limiting dilution method.
(§2) The SE302 cells constructed in Example 5 were seeded onto a collagen coated 6 well plate (Asahi Technoglass, Co.) at 1.2×10^5 cells per well. Cells were cultured with 2 mL/well of DMEM medium (Sigma, Co.) (containing 10% FBS, penicillin 100 units/mL and streptomycin 100 μg/mL). On the following day, solutions of the virus vector containing GPR120 or mGPR120 obtained in Example 4, and polybrene (also called hexadimethrine bromide, Sigma, Co.) at a final concentration of 8 μg/mL were added to SE302 cells. Cells were cultured with the medium containing 500 μg/mL of hygromycin (Invitrogen, Co.) and cells grown under this condition were used for experiments as SE302 cells introduced with GPR120 gene, and SE302 cells introduced with mGPR120 gene (referred to as “GPR120-SE302 cells” and “mGPR120-SE302 cells”, respectively hereinafter).
The aforementioned GPR120-SE302 cells or mGPR120-SE302 cells constructed in Example 6 were suspended in the culture medium for measurement of transcription activity (DMEM containing FBS which was heat-treated at 65° C. for 30 min at a final concentration of 10%) and seeded onto a 96 well plate (Becton Dickinson, Co.) at 1×10^4 cells/well. In addition, as control cells, SE302 cells expressing green fluorescent protein (GFP, Invitrogen, Co.) (referred to as “GFP-SE302 cells” hereinafter) were used. Specifically, GFP-302 cells were prepared by obtaining a virus for expressing GFP using the method shown in Example 3 and 4, and transfecting SE302 cells with the virus using the method shown in Example 6. Cells were cultured for 24 hours after seeding, and forskolin prepared at a final concentration of 1.0 μM and a sample were added. Cells were cultured for another 24 hours and 5 μL of the cell supernatant was recovered and transferred to a polypropylene 384-well white plate (Nalge Nunc International, Co.). Then, 20 μL of the assay buffer (280 mmol/L Na2CO3—NaHCO3, 8 mmol/L MgSO4, pH 10) and 25 μL of Lumiphos530 (Lumigen, Co.) were added. Following a 2-hour reaction at room temperature, chemiluminescence in each well was measured using a Fusion plate reader (Perkin Elmer, Co.) and was defined as the transcription activity. Based on these measured values, stimulation/inhibition of transcription activity was calculated using the equation (I) shown below and described as [% of control]. Activities of the group with a sample added were calculated using the value of control placed on each plate. […]

mouse GPR120 = target: T2, mouse GPR120; assay: PLAP reporter transcription activity in mGPR120-SE302 cells (CRE-PLAP reporter); format: cell-based; settings: HEK293-derived SE302 cells expressing mouse GPR120; forskolin 1.0 μM plus sample, 24 hours; chemiluminescence of supernatant; compared to control cells (GFP-SE302)
Description: as §1, §2
The aforementioned GPR120-SE302 cells or mGPR120-SE302 cells constructed in Example 6 were suspended in the culture medium for measurement of transcription activity (DMEM containing FBS which was heat-treated at 65° C. for 30 min at a final concentration of 10%) and seeded onto a 96 well plate (Becton Dickinson, Co.) at 1×10^4 cells/well. In addition, as control cells, SE302 cells expressing green fluorescent protein (GFP, Invitrogen, Co.) (referred to as “GFP-SE302 cells” hereinafter) were used. Specifically, GFP-302 cells were prepared by obtaining a virus for expressing GFP using the method shown in Example 3 and 4, and transfecting SE302 cells with the virus using the method shown in Example 6. Cells were cultured for 24 hours after seeding, and forskolin prepared at a final concentration of 1.0 μM and a sample were added. Cells were cultured for another 24 hours and 5 μL of the cell supernatant was recovered and transferred to a polypropylene 384-well white plate (Nalge Nunc International, Co.). Then, 20 μL of the assay buffer (280 mmol/L Na2CO3—NaHCO3, 8 mmol/L MgSO4, pH 10) and 25 μL of Lumiphos530 (Lumigen, Co.) were added. Following a 2-hour reaction at room temperature, chemiluminescence in each well was measured using a Fusion plate reader (Perkin Elmer, Co.) and was defined as the transcription activity. Based on these measured values, stimulation/inhibition of transcription activity was calculated using the equation (I) shown below and described as [% of control]. Activities of the group with a sample added were calculated using the value of control placed on each plate. [% of control]=(X−C)/(F−C)×100 (I) Herein, in the above equation: • X: PLAP transcription activity in the group added with a sample, • F: Mean value of transcription activities in 2 wells of a positive control (no sample added, stimulated with forskolin), • C: Mean value of transcription activities in 2 wells of a negative control (no sample added, not stimulated with forskolin).

Molecule	PLAP activity in GPR120-SE302 cells (human GPR120)	PLAP activity in mGPR120-SE302 cells (mouse GPR120)
porcine pancreatic sPLA2: commercially-available (Sigma) porcine pancreatic sPLA2, reported to be mainly Group IB sPLA2 (Swiss Prot P00592)	concentration dependent elevation of PLAP activity	concentration dependent elevation of PLAP activity
recombinant mGX-sPLA2: C-terminal FLAG-tagged mouse GX-sPLA2 (SEQ ID NO 45) from baculovirus-infected Sf-9 cells, purified (protein, listed as Mus musculus, C-terminal FLAG tag) MLLLLLLLLLGPGPGFSEATRRSHVYKRGLLELAGTLDCVGPRSPMAYMNYGCYCGLGGHGEPRDAIDWCCYHHDCCYSRAQDAGCSPKLDRYPWKCMDHHILCGPAENKCQELLCRCDEELAYCLAGTEYHLKYLFFPSILCEKDSPKCNDYKDDDDK	concentration dependent elevation of PLAP activity	concentration dependent elevation of PLAP activity
hGX-sPLA2-His: purified human C-terminal His-tagged GX-sPLA2 from baculovirus-infected Sf9 cells (protein, UniProt O15496 43-165, looked up, C-terminal His6 tag, purified human C-terminal His-tagged GX-sPLA2 from baculovirus-infected Sf9 cells) Group 10 secretory …: GILELAGTVGCVGPRTPIAYMKYGCFCGLGGHGQPRDAIDWCCHGHDCCYTRAEEAGCSPKTERYSWQCVNQSVLCGPAENKCQELLCKCDQEIANCLAQTEYNLKYLFYPQFLCEPDSPKCD	–	concentration dependent elevation of PLAP activity
GX-sPLA2: rat Group X secretory phospholipase A2 (SEQ ID NO 23) purified from rat intestinal tract and testis extracts (protein, listed as Rattus norvegicus) GLLELAGTLDCVGPRSPMAYMNYGCYCGLGGHGEPRDAIDWCCYYHDCCYSQAQDAGCSPKLYRYPWKCMDHRILCGPAENKCQELLCRCDETLAYCLADTEYHLKYLFFPSVLCEKDSPKCN	elevate PLAP activity specifically in GPR120-SE302 cells	–
mGX-sPLA2-His: purified mouse C-terminal His-tagged GX-sPLA2 from baculovirus-infected Sf9 cells (protein, UniProt Q9QXX3 29-151, looked up, C-terminal His6 tag, purified mouse C-terminal His-tagged GX-sPLA2 from baculovirus-infected Sf9 cells) Group 10 secretory …: GLLELAGTLDCVGPRSPMAYMNYGCYCGLGGHGEPRDAIDWCCYHHDCCYSRAQDAGCSPKLDRYPWKCMDHHILCGPAENKCQELLCRCDEELAYCLAGTEYHLKYLFFPSILCEKDSPKCN	–	concentration dependent elevation of PLAP activity
recombinant hGX-sPLA2: C-terminal FLAG-tagged human GX-sPLA2 (SEQ ID NO 43) produced in silkworm pupae, purified (protein, listed as Homo sapiens, C-terminal FLAG tag) MGPLPVCLPIMLLLLLPSLLLLLLLPGPGSGEASRILRVHRRGILELAGTVGCVGPRTPIAYMKYGCFCGLGGHGQPRDAIDWCCHGHDCCYTRAEEAGCSPKTERYSWQCVNQSVLCGPAENKCQELLCKCDQEIANCLAQTEYNLKYLFYPQFLCEPDSPKCDDYKDDDDK	concentration dependent elevation of PLAP activity	concentration dependent elevation of PLAP activity
